Laboratory results from publication PMC10302166, “Molecular basis and dual ligand regulation of tetrameric estrogen receptor α/14-3-3ζ protein complex” (The Journal of Biological Chemistry, 2023).
One block for each molecule: values may come before it. Where no end group is shown, it is not given here. [ ]: non-standard residue; d: D form. pT = C[C@@H](OP(=O)(O)O)[C@H](N)C(=O)O

Tests used:
14-3-3ζ-strep [1] = target: T1, 14-3-3ζ-strep (human, UniProt P63104 1-245); assay: quantitative LC-QToF-MS of the purified complex; concentrations of 14-3-3ζ and ERα in dilutions of the purified complex read from calibration series of 14-3-3ζ-strep and ERα-pT594-strep
T1 chain: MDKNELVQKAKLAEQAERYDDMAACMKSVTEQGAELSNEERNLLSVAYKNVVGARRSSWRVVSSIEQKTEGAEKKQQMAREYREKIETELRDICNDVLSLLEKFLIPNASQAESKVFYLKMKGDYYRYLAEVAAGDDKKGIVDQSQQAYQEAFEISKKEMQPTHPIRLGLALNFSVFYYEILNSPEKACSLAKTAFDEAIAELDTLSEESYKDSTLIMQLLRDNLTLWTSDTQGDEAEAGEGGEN

[2] = target: ERα LBD-F domain, PKA-responsive (F591R/P592R), phosphorylated at T594, as in the co-purified ERα/14-3-3ζ complex after SUMO cleavage (human (from the printed UniProt entry)) (UniProt P03372); assay: AUC; sedimentation velocity, 20 °C, 20 mM HEPES pH 7.5, 150 mM NaCl, 10 mM MgCl2, 0.5 mM TCEP; 10 μM single proteins, 10 or 30 μM complex; complex also with added 14-3-3ζ (up to six equivalents) or 20 μM E2 or 4-OHT; KD estimated from peak areas (KD = [A][B]/[AB]), dimer to dimer
14-3-3ζ-strep [3] = target: T1, 14-3-3ζ-strep; assay: as above
[4] = target: fluorescein-labeled SRC-1 cofactor peptide (LXXLL motif of SRC-1/NCoA-1); assay: fluorescence polarisation; fluorescence anisotropy; ERα or complex titrated (2-fold series from 40 μM ERα) to 20 nM fluorescein-labeled SRC1 peptide; DMSO control; 20 mM HEPES pH 7.5, 150 mM NaCl, 10 mM MgCl2, 0.1% Tween20, 0.1% BSA; room temperature; apparent KD (4PL fit)
[5] = target: fluorescein-labeled SRC-1 cofactor peptide (LXXLL motif of SRC-1/NCoA-1); assay: fluorescence polarisation; as a10 but in the presence of 100 μM E2; apparent KD
[6] = target: ERα(PKA) phosphopeptide (fluorescein-labeled C-terminal peptide mimic with F591R/P592R, pT594) (human (from the printed UniProt entry)); assay: fluorescence polarisation; as a13 in the presence of a 2-fold dilution series of 3′de-Ac FC-A (0.015–250 μM); cooperativity analysis of the ternary 14-3-3/peptide/FC-A complex
[7] = target: T2, ERα(PKA)-strep phosphopeptide (fluorescein-labeled, pT594, with C-terminal strep-tag) (human (from the printed UniProt entry)); assay: as above
[8] = target: T2, ERα(PKA)-strep phosphopeptide (fluorescein-labeled, pT594, with C-terminal strep-tag) (human); assay: fluorescence polarisation; fluorescence anisotropy; 14-3-3ζ titrated (2-fold series from 300 μM) to 2 nM fluorescein-labeled ERα peptide; 20 mM HEPES pH 7.5, 150 mM NaCl, 10 mM MgCl2, 0.1% Tween20, 0.1% BSA; room temperature; apparent
[9] = target: the molecule itself; assay: SEC; analytical SEC, Superdex200 increase 3.2/300, 20 mM Tris pH 7.5, 150 mM NaCl, 10 mM MgCl2, 0.5 mM TCEP; 10 μM 14-3-3ζ, 10 μM ERα-strep, 20 μM complex; BSA as size reference
14-3-3ζ-strep [10] = target: T1, 14-3-3ζ-strep; assay: FP
[11] = target: T3, 14-3-3ζ-strep (human), P63104; assay: AUC; sedimentation velocity, 20 °C, 20 mM HEPES pH 7.5, 150 mM NaCl, 10 mM MgCl2, 0.5 mM TCEP; 10 μM single proteins, 10 or 30 μM complex; complex also with added 14-3-3ζ (up to six equivalents) or 20 μM E2 or 4-OHT; KD estimated from peak areas (KD = [A][B]/[AB]), dimer to dimer; details: remark: other sources report otherwise
T3 chain: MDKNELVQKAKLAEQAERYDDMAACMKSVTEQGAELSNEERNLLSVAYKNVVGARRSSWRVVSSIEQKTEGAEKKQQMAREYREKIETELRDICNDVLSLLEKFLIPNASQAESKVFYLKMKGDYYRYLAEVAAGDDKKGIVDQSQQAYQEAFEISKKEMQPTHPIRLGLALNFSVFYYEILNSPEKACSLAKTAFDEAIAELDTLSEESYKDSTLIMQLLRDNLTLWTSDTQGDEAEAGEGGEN

[12] = target: T3, 14-3-3ζ-strep (human), P63104; assay: SEC; analytical SEC, Superdex200 increase 3.2/300, 20 mM Tris pH 7.5, 150 mM NaCl, 10 mM MgCl2, 0.5 mM TCEP; 10 μM 14-3-3ζ, 10 μM ERα-strep, 20 μM complex; BSA as size reference; details: remark: other sources report otherwise
14-3-3ζ-strep [13] = target: T1, 14-3-3ζ-strep; assay: FP

Molecule: ERα LBD-F domain, PKA-responsive (F591R/P592R), phosphorylated at T594, as in the co-purified ERα/14-3-3ζ complex after SUMO cleavage (from UniProt P03372 302-595) (domain or fragment)
stoichiometry N (14-3-3ζ-strep [1]): 1 ERα:14-3-3ζ | stoichiometry N [2]: 2 | Kd (14-3-3ζ-strep [3]): 0.032 µM | stoichiometry N (ERα:14-3-3ζ (2:2)) (14-3-3ζ-strep [3]): 1

Molecule: 14-3-3ζ-strep (from UniProt P63104 1-245) (natural protein)
cooperativity factor (α) of FC-A stabilisation [6]: 366 | cooperativity factor (α) of FC-A stabilisation [7]: 15 | fold reduction in binding affinity against the ERα peptide without strep-tag [8]: 50 fold

B1: ERαLBD-F-strep (PKA-responsive, non-phosphorylated) (domain or fragment, human (from the printed UniProt entry), UniProt P03372 302-595, looked up)
chain: KKNALALSLTADQMVSALLDAEPPILYSEYDPTRPFSEASMMGLLTNLADRELVHMINWAKRVPGFVDLTLHDQVHLLECAWLEILMIGLVWRSMEHPGKLLFAPNLLLDRNQGKCVEGMVEIFDMLLATSSRFRMMNLQGEEFVCLKSIILLNSGVYTFLSSTLKSLEEKDHIHRVLDKITDTLIHLMAKAGLTLQQQHQRLAQLLLILSHIRHMSNKGMEHLYSMKCKNVVPLYDLLLEMLDAHRLHAPTSRGGASVEETDQSHLATAGSTSSHSLQKYYITGEAEGRRATV
notes: also called ERα-strep; ERα(PKA)-strep; source: E. coli NiCo21 (DE3), purified (Ni-NTA, SUMO cleavage, Strep-Tactin, SEC); not shown: His tag, N-terminal, cleaved; SUMO, N-terminal, cleaved; strep-tag, C-terminal, kept
stoichiometry N [9]: 2

Molecule: AEGRRA[pT]VPWSHPQFEK (also: fluorescein label, position not given here) [ERα(PKA)-strep phosphopeptide (fluorescein-labeled, pT594, with C-terminal strep-tag)]
Kd (14-3-3ζ-strep [10]): 14 µM

Molecule: AEGRRA[pT]V (also: fluorescein label, position not given here) [ERα(PKA) phosphopeptide (fluorescein-labeled C-terminal peptide mimic with F591R/P592R, pT594)]
Kd (14-3-3ζ-strep [13]): 0.3 µM

The remaining lines, values ahead:

Kd [4]: 9.6 µM | Kd [5]: 0.6 µM
Molecule: ERα/14-3-3ζ protein complex (tetramer of an ERα homodimer and a 14-3-3ζ homodimer) (from UniProt P03372 302-595; P63104 1-245)

stoichiometry N [11]: 2 | stoichiometry N [12]: 2
B2: 14-3-3ζ-strep, P63104 1-245 (natural protein)
chain: MDKNELVQKAKLAEQAERYDDMAACMKSVTEQGAELSNEERNLLSVAYKNVVGARRSSWRVVSSIEQKTEGAEKKQQMAREYREKIETELRDICNDVLSLLEKFLIPNASQAESKVFYLKMKGDYYRYLAEVAAGDDKKGIVDQSQQAYQEAFEISKKEMQPTHPIRLGLALNFSVFYYEILNSPEKACSLAKTAFDEAIAELDTLSEESYKDSTLIMQLLRDNLTLWTSDTQGDEAEAGEGGEN

Kd (14-3-3ζ-strep [13]): 2.2 µM
Molecule: AEGFPA[pT]V (also: fluorescein label, position not given here) [WT ERα phosphopeptide (fluorescein-labeled C-terminal peptide mimic, pT594)]
